Biological target: T1, β’’ subunit of the Sinapis alba plastid-encoded RNA polymerase (SaPEP) (Sinapis alba, UniProt Q9THV5 1-1384)
T1 construct: source: native, in the PEP purified from Sinapis alba cotyledon chloroplasts (heparin, MonoQ, Superose 6)
T1 sequence (looked up): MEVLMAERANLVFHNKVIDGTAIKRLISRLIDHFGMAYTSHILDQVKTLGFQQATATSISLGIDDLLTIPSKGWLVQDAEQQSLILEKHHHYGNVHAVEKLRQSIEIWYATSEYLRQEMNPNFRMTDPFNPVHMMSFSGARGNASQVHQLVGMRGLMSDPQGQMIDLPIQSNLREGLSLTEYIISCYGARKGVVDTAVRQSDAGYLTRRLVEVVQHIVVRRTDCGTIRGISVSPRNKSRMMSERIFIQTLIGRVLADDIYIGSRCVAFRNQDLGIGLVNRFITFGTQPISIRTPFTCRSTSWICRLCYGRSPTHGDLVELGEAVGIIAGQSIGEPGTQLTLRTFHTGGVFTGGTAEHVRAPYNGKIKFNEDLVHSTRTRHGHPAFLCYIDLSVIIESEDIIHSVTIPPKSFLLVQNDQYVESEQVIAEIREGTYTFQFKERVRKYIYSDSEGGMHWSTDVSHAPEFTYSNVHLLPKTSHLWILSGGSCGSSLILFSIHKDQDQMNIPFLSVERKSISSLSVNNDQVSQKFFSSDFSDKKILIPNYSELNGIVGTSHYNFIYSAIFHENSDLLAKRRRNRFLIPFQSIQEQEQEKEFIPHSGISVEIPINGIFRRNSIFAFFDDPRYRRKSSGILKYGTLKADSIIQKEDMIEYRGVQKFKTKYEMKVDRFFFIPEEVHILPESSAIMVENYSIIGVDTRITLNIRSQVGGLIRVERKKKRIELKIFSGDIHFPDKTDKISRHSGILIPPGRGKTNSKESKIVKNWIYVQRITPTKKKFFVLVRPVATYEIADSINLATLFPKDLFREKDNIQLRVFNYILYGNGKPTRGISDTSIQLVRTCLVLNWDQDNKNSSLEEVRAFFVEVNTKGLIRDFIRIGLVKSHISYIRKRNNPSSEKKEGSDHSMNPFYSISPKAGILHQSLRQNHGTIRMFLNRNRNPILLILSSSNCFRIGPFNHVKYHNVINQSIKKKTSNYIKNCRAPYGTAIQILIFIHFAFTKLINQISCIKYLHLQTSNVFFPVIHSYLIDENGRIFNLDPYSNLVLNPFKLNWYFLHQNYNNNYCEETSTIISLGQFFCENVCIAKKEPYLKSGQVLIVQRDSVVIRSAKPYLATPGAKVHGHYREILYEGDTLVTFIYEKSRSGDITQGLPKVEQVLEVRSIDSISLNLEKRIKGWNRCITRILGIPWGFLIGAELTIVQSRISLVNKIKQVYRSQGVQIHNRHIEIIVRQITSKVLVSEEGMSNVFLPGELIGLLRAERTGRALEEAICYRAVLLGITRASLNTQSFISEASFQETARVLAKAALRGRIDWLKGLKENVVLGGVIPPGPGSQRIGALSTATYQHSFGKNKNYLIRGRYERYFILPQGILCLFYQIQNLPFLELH
Assay: cryo-EM structure; native 21-subunit SaPEP purified from S. alba cotyledon chloroplasts; graphene oxide grids; consensus map 3.0 Å, multibody and composite maps; open conformation
Conditions: both partners purified

B1: β subunit of the Sinapis alba plastid-encoded RNA polymerase (SaPEP) (natural protein, UniProt P46818 1-1078, looked up)
chain: MINAKKMLGDGKEGTSTIPGFNQIQFEGFYRFIDQGLIEELSKFPKIEDIDHEIEFQLFVETYQLVEPLIKERDAVYESLTYSSELYVSAGLIWKTNRNMQEQRIFIGNIPLMNSLGTSIVNGIYRVVINQILQSPGIYYQSELDHNGISVYTGTIISDWGGRLELEIDKKARIWARVSRKQKISILVLSSAMGSNLREILENVCYPEIFLSFLTDKEKKKIGSKENAILEFYQQFSCVGGDPIFSESLCKELQKKFFHQRCELGRIGRRNINWRLNLNIPQNNIFLLPRDILAAADHLIGMKFGMGTLDDMNHLKNKRIRSVADLLQDQLGLALARLENVVKGTIGGAIRHKLIPPTQNLVTSTPLTTTYESFFGFHPLSQVLDRTNPLTQIVHGRKLSYLGPGGLTGRTANFRIRDIHPSHYGRICPIDTSEGINVGLIGSLSIHARIGDWGSLESPFYELVEKSKKAQIRMLFLSPSQDEYYMIAAGNSLALNRGIQEEQVVPARYRQEFLTIAWEEVHLRSIFPFQYFSIGASLIPFIEHNDANRALMSSNMQRQAVPLSRSEKCIVGTGLERQVALDSGVPAIAEHEGKILYTDTEKIILSGNENTLSIPLIMYQRSNKNTCMHQKPQVPRGKCIKKGQILADGAATVGGELALGKNVLVAYMPWEGYNFEDAVLISECLVYGDIYTSFHIRKYEIQTHVTTQGPERITKEIPHLEGRLLRNLDKNGIVMLGSWVETGDILVGKLTPQVAKESSYAPEDRLLRAILGIQVSTSKETCLKLPIGGRGRVIDVRWVQKKGGSSYNPEIIRVYISQKREIKVGDKVAGRHGNKGIISKILPRQDMPYLQDGRPVDMVFNPLGVPSRMNVGQIFECSLGLAGSLLDRHYRIAPFDERYEQEASRKLVFSELYEASKQTANPWVFEPEYPGKSRIFDGRTGDPFEQPVIIGKPYILKLIHQVDDKIHGRSSGHYALVTQQPLRGRSKQGGQRVGEMEVWALEGFGVAHILQEMLTYKSDHIRARQEVLGTTIIGGTIPKPEDAPESFRLLVRELRSLALELNHFLVSEKNFQINRKEV
notes: plastid-encoded β subunit of the S. alba PEP catalytic core; source: native, in the PEP purified from Sinapis alba cotyledon chloroplasts (heparin, MonoQ, Superose 6)
- binding result: binds
